# T1: telitacicept
# T1 construct: TACI-Fc fusion protein drug; also called Tai ai; TACI-Fc fusion protein
# T1 chain: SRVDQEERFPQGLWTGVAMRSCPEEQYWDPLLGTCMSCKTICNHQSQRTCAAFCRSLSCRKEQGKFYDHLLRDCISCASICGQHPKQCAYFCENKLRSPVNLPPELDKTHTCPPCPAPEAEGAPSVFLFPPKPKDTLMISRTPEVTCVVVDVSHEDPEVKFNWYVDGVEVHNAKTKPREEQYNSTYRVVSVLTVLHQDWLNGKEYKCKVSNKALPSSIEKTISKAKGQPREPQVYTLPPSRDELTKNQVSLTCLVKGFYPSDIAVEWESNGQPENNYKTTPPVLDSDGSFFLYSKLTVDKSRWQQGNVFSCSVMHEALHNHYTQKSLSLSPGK
# Columns and labels:
# telitacicept [1] = biological target: T1, telitacicept; assay: competition ELISA; BLyS coated; 30 ng/ml telitacicept pre-incubated with 10-fold diluted supernatant; telitacicept bound to BLyS read with anti-human IgG Fc-HRP
# Method: (§1) The hybridoma cells were cultured, and the supernatants were used for enzyme-linked immunosorbent assay (ELISA). BLyS (R&D Systems) was coated on a 96-well microplate and incubated at 4° C. overnight. The plate was blocked with 300 μl of 3% BSA-PBST per well and incubated at 37° C. for 3 h. The supernatants were diluted at ratios of 10-fold, 100-fold and 1000-fold with PBST and separately incubated with 30 ng/ml telitacicept for a given period. These mixtures were then added to the 96-well plate at 100 μl per well and incubated at 37° C. for 1 h. Goat anti-human IgG Fc-HRP (1:5000 dilution) was added at 100 μl per well and incubated at 37° C. for 1 h. 100 μL of substrate per well was added for color development, and the absorbance was read at 450 nm and 655 nm. Antibodies with high activity were screened based on the difference in absorbance between 450 nm and 655 nm, respectively.
# telitacicept [2] = biological target: T1, telitacicept; assay: competition ELISA; BLyS coated; 30 ng/ml telitacicept pre-incubated with 1000-fold diluted supernatant; telitacicept bound to BLyS read with anti-human IgG Fc-HRP
# Method: as §1
# telitacicept [3] = biological target: T1, telitacicept; assay: competition ELISA; BLyS coated; 30 ng/ml telitacicept pre-incubated with 100-fold diluted supernatant; telitacicept bound to BLyS read with anti-human IgG Fc-HRP
# Method: as §1
# telitacicept [4] = biological target: T1, telitacicept; assay: BLI (Octet RH16); biotinylated 1B11D2 on SA biosensors, telitacicept as analyte; kinetic fit
# Method: An Octet RH16 molecular interaction analyzer (Sartorius) was used. An appropriate amount of antibody 1B11D2 reacted with EZ-Link Sulfo-NHS-LC-LC-Biotin ([…]) at room temperature for 30 min followed by centrifugation with a Zeba spin desalting column to collect the biotinylated antibody 1B11D2.
# The biotinylated antibody 1B11D2 was immobilized on Octet SA Biosensors ([…]) and telitacicept at various concentrations was used as the analyte. The detection curve was fitted by kinetic analysis to obtain the results.
Absorbance (450 nm - 655 nm) (telitacicept [1]),Absorbance (450 nm - 655 nm) (telitacicept [2]),Absorbance (450 nm - 655 nm) (telitacicept [3]),Kd (telitacicept [4]) [nM],koff (telitacicept [4]) [s⁻¹],kon (telitacicept [4]) [M⁻¹ s⁻¹],Binder
0.057,0.448,0.215,–,–,–,"antibody 7G12F8 (antibody, mouse IgG1, kappa, V domains shown, Mouse hybridoma antibody, purified from the culture supernatant of cell line 7G12F8-1; The printed chains seem to include a leader peptide, but no cleavage site is stated; also called 7G12F8-1 (hybridoma cell line / culture supernatant)) VH: EVQLQQSGPELVRPGASVKKSCKTSGYTFTAYALHWVKQSHGTSLEWIGGINPNHGGVSYNQKFKDKATLTVDKSSSTAYMELRSLTSEDSAVYYCARFRWDLYYGMDYWGQGTSVIVAS VL: QIVLTQSPAIISVSSGEKVTMPCSDNSNMIYMYWNLWKPGTSPKRWIYDTSRLASGVPARFSGSGFGTSFSLTVSSMEAEDAATYYCHQRSIYSWTFGGGTKLEIKR"
0.082,0.443,0.242,–,–,–,"antibody 12C9F3 (antibody, mouse IgG1, kappa, V domains shown, Mouse hybridoma antibody, purified from the culture supernatant of cell line 12C9F3-1; The printed chains seem to include a leader peptide, but no cleavage site is stated; also called 12C9F3-1 (hybridoma cell line / culture supernatant)) VH: EVQLQQSGPELVKPGASVKISCKTSGYTFTEYAMHWVKQSHGKSLEWIGGINPNHGGTSNNQKFKGKATLTVDKSSSTAYMDFRSLTSEDSAVYYCARWGTDPFFAYWGQGTLVTVSA VL: DIVMTQSHKFMSTSVGDRVSITCKASQDVSTAVAWYQQKPGQSPKLLIYWASTRHTGVPDRFTGSGSGTDYTLTITSVQAEDLTLYYCHQHYAPPWTFGGGTKLEIKR"
0.016,0.454,0.141,0.325,0.000105,323000,"antibody 1B11D2 (antibody, mouse IgG1, kappa, V domains shown, Mouse hybridoma antibody, purified from the culture supernatant of cell line 1B11D2-1; The printed heavy and light chains start with what looks like a leader peptide (MGWSW..., MKSQT...); also called 1B11D2-1 (hybridoma cell line / culture supernatant); TACI antibody (1B11D2)) VH: EVQLQQSGPELVKPGASVKISCKTSGYTFTEFSMHWVQQSHGKSLEWIGGINPNHGGSSYNQKFKGKATLTVDKSSSTAYMELRSLTSEDSAVYYCARRGDYYGNLYYAMDYWGQGTSVTVSS VL: SIVMTQTPKFLLVSVGDSITITCKASQSVSNDVVWYQQKPGQSPKLLIYYASNRYTGVPDRFTGSGYGTDFTFTITTVQAEDLAVYFCQQDYSSPWAFGGGTKLEIKR"

# Reference: patent US20260098866A1 (REMEGEN, published 2026)
